Our source for the Kd values is patent US20240279325A1 (Chugai, published 2024).

The term Kd denotes the free concentration of one partner at which half of the binding sites on the other are occupied at equilibrium, for simple one-to-one binding. The low end stands for tighter binding, the high end for weaker binding.

B1: IL6R-BP078/IL6R-L (antibody, human IgG1, kappa, name in EU numbering)
heavy: QVQLQESGPGLVKPSETLSLTCAVSGHSISHDHAWSWVRQPPGEGLEWIGFISYSGITNYNPSLQGRVTISRDNSKNTLYLQMNSLRAEDTAVYYCARSLARTTAMDYWGEGTLVTVSSASTKGPSVFPLAPSSKSTSGGTAALGCLVKDYFPEPVTVSWNSGALTSGVHTFPAVLQSSGLYSLSSVVTVPSSSLGTQTYICNVNHKPSNTKVDKKVEPKSCDKTHTCPPCPAPELLGGDSVFLFPPKPKDTLMISRTPEVTCVVVDVSHEDPEVKFNWYVDGVEVHNAKTKPREEQYNSTYRVVSVLTVLHQDWLNGKEYKCKVSNKALPMPIEKTISKAKGQPREPQVYTLPPSRDELTKNQVSLTCLVKGFYPSDIAVEWESNGQPENNYKTTPPVLDSDGSFFLYSKLTVDKSRWQQGNVFSCSVMHEALHNHYTQESLSLSP
light: not shown
notes: Alterations introduced into IL6R-B3; also called P238D/A330M; copies: 2 + 2
B2: IL6R-BP110/IL6R-L (antibody, human IgG1, kappa, name in EU numbering)
heavy: QVQLQESGPGLVKPSETLSLTCAVSGHSISHDHAWSWVRQPPGEGLEWIGFISYSGITNYNPSLQGRVTISRDNSKNTLYLQMNSLRAEDTAVYYCARSLARTTAMDYWGEGTLVTVSSASTKGPSVFPLAPSSKSTSGGTAALGCLVKDYFPEPVTVSWNSGALTSGVHTFPAVLQSSGLYSLSSVVTVPSSSLGTQTYICNVNHKPSNTKVDKKVEPKSCDKTHTCPPCPAPELLGGDSVFLFPPKPKDTLMISRTPEVTCVVVDVSNEDPEVKFNWYVDGVEVHNAKTKPREEQYNSTYRVVSVLTVLHQDWLNGKEYKCKVSNKALPAPIEKTISKAKGQPREPQVYTLPPSRDELTKNQVSLTCLVKGFYPSDIAVEWESNGQPENNYKTTPPVLDSDGSFFLYSKLTVDKSRWQQGNVFSCSVMHEALHNHYTQESLSLSP
light: not shown
notes: Alterations introduced into IL6R-B3; also called P238D/H268N; copies: 2 + 2
B3: IL6R-BP116/IL6R-L (antibody, human IgG1, kappa, name in EU numbering)
heavy: QVQLQESGPGLVKPSETLSLTCAVSGHSISHDHAWSWVRQPPGEGLEWIGFISYSGITNYNPSLQGRVTISRDNSKNTLYLQMNSLRAEDTAVYYCARSLARTTAMDYWGEGTLVTVSSASTKGPSVFPLAPSSKSTSGGTAALGCLVKDYFPEPVTVSWNSGALTSGVHTFPAVLQSSGLYSLSSVVTVPSSSLGTQTYICNVNHKPSNTKVDKKVEPKSCDKTHTCPPCPAPELLGGDSVFLFPPKPKDTLMISRTPEVTCVVVDVSHEDPEVKFNWYVDGVEVHNAKTKPREEQYNSTYRVVSVLTVLHQDWLNGKEYKCKVSNTALPAPIEKTISKAKGQPREPQVYTLPPSRDELTKNQVSLTCLVKGFYPSDIAVEWESNGQPENNYKTTPPVLDSDGSFFLYSKLTVDKSRWQQGNVFSCSVMHEALHNHYTQESLSLSP
light: not shown
notes: Alterations introduced into IL6R-B3; also called P238D/K326T; copies: 2 + 2
B4: IL6R-BP106/IL6R-L (antibody, human IgG1, kappa, name in EU numbering)
heavy: QVQLQESGPGLVKPSETLSLTCAVSGHSISHDHAWSWVRQPPGEGLEWIGFISYSGITNYNPSLQGRVTISRDNSKNTLYLQMNSLRAEDTAVYYCARSLARTTAMDYWGEGTLVTVSSASTKGPSVFPLAPSSKSTSGGTAALGCLVKDYFPEPVTVSWNSGALTSGVHTFPAVLQSSGLYSLSSVVTVPSSSLGTQTYICNVNHKPSNTKVDKKVEPKSCDKTHTCPPCPAPELLGGDSVFLFPPKPKDTLMISRTPEVTCVVVDVSDEDPEVKFNWYVDGVEVHNAKTKPREEQYNSTYRVVSVLTVLHQDWLNGKEYKCKVSNKALPAPIEKTISKAKGQPREPQVYTLPPSRDELTKNQVSLTCLVKGFYPSDIAVEWESNGQPENNYKTTPPVLDSDGSFFLYSKLTVDKSRWQQGNVFSCSVMHEALHNHYTQESLSLSP
light: not shown
notes: Alterations introduced into IL6R-B3; also called P238D/H268D; copies: 2 + 2
B5: IL6R-BP107/IL6R-L (antibody, human IgG1, kappa, name in EU numbering)
heavy: QVQLQESGPGLVKPSETLSLTCAVSGHSISHDHAWSWVRQPPGEGLEWIGFISYSGITNYNPSLQGRVTISRDNSKNTLYLQMNSLRAEDTAVYYCARSLARTTAMDYWGEGTLVTVSSASTKGPSVFPLAPSSKSTSGGTAALGCLVKDYFPEPVTVSWNSGALTSGVHTFPAVLQSSGLYSLSSVVTVPSSSLGTQTYICNVNHKPSNTKVDKKVEPKSCDKTHTCPPCPAPELLGGDSVFLFPPKPKDTLMISRTPEVTCVVVDVSEEDPEVKFNWYVDGVEVHNAKTKPREEQYNSTYRVVSVLTVLHQDWLNGKEYKCKVSNKALPAPIEKTISKAKGQPREPQVYTLPPSRDELTKNQVSLTCLVKGFYPSDIAVEWESNGQPENNYKTTPPVLDSDGSFFLYSKLTVDKSRWQQGNVFSCSVMHEALHNHYTQESLSLSP
light: not shown
notes: Alterations introduced into IL6R-B3; also called P238D/H268E; copies: 2 + 2
B6: IL6R-BP100/IL6R-L (antibody, human IgG1, kappa, name in EU numbering)
heavy: QVQLQESGPGLVKPSETLSLTCAVSGHSISHDHAWSWVRQPPGEGLEWIGFISYSGITNYNPSLQGRVTISRDNSKNTLYLQMNSLRAEDTAVYYCARSLARTTAMDYWGEGTLVTVSSASTKGPSVFPLAPSSKSTSGGTAALGCLVKDYFPEPVTVSWNSGALTSGVHTFPAVLQSSGLYSLSSVVTVPSSSLGTQTYICNVNHKPSNTKVDKKVEPKSCDKTHTCPPCPAPELLGGDSVFLFPPKPKDTLMISRTPEVTCVVVDVAHEDPEVKFNWYVDGVEVHNAKTKPREEQYNSTYRVVSVLTVLHQDWLNGKEYKCKVSNKALPAPIEKTISKAKGQPREPQVYTLPPSRDELTKNQVSLTCLVKGFYPSDIAVEWESNGQPENNYKTTPPVLDSDGSFFLYSKLTVDKSRWQQGNVFSCSVMHEALHNHYTQESLSLSP
light: not shown
notes: Alterations introduced into IL6R-B3; also called P238D/S267A; copies: 2 + 2
B7: IL6R-BP117/IL6R-L (antibody, human IgG1, kappa, name in EU numbering)
heavy: QVQLQESGPGLVKPSETLSLTCAVSGHSISHDHAWSWVRQPPGEGLEWIGFISYSGITNYNPSLQGRVTISRDNSKNTLYLQMNSLRAEDTAVYYCARSLARTTAMDYWGEGTLVTVSSASTKGPSVFPLAPSSKSTSGGTAALGCLVKDYFPEPVTVSWNSGALTSGVHTFPAVLQSSGLYSLSSVVTVPSSSLGTQTYICNVNHKPSNTKVDKKVEPKSCDKTHTCPPCPAPELLGGDSVFLFPPKPKDTLMISRTPEVTCVVVDVSHEDPEVKFNWYVDGVEVHNAKTKPREEQYNSTYRVVSVLTVLHQDWLNGKEYKCKVSNDALPAPIEKTISKAKGQPREPQVYTLPPSRDELTKNQVSLTCLVKGFYPSDIAVEWESNGQPENNYKTTPPVLDSDGSFFLYSKLTVDKSRWQQGNVFSCSVMHEALHNHYTQESLSLSP
light: not shown
notes: Alterations introduced into IL6R-B3; also called P238D/K326D; copies: 2 + 2
B8: IL6R-BP102/IL6R-L (antibody, human IgG1, kappa, name in EU numbering)
heavy: QVQLQESGPGLVKPSETLSLTCAVSGHSISHDHAWSWVRQPPGEGLEWIGFISYSGITNYNPSLQGRVTISRDNSKNTLYLQMNSLRAEDTAVYYCARSLARTTAMDYWGEGTLVTVSSASTKGPSVFPLAPSSKSTSGGTAALGCLVKDYFPEPVTVSWNSGALTSGVHTFPAVLQSSGLYSLSSVVTVPSSSLGTQTYICNVNHKPSNTKVDKKVEPKSCDKTHTCPPCPAPELLGGDSVFLFPPKPKDTLMISRTPEVTCVVVDVQHEDPEVKFNWYVDGVEVHNAKTKPREEQYNSTYRVVSVLTVLHQDWLNGKEYKCKVSNKALPAPIEKTISKAKGQPREPQVYTLPPSRDELTKNQVSLTCLVKGFYPSDIAVEWESNGQPENNYKTTPPVLDSDGSFFLYSKLTVDKSRWQQGNVFSCSVMHEALHNHYTQESLSLSP
light: not shown
notes: Alterations introduced into IL6R-B3; also called P238D/S267Q; copies: 2 + 2
B9: IL6R-BP103/IL6R-L (antibody, human IgG1, kappa, name in EU numbering)
heavy: QVQLQESGPGLVKPSETLSLTCAVSGHSISHDHAWSWVRQPPGEGLEWIGFISYSGITNYNPSLQGRVTISRDNSKNTLYLQMNSLRAEDTAVYYCARSLARTTAMDYWGEGTLVTVSSASTKGPSVFPLAPSSKSTSGGTAALGCLVKDYFPEPVTVSWNSGALTSGVHTFPAVLQSSGLYSLSSVVTVPSSSLGTQTYICNVNHKPSNTKVDKKVEPKSCDKTHTCPPCPAPELLGGDSVFLFPPKPKDTLMISRTPEVTCVVVDVVHEDPEVKFNWYVDGVEVHNAKTKPREEQYNSTYRVVSVLTVLHQDWLNGKEYKCKVSNKALPAPIEKTISKAKGQPREPQVYTLPPSRDELTKNQVSLTCLVKGFYPSDIAVEWESNGQPENNYKTTPPVLDSDGSFFLYSKLTVDKSRWQQGNVFSCSVMHEALHNHYTQESLSLSP
light: not shown
notes: Alterations introduced into IL6R-B3; also called P238D/S267V; copies: 2 + 2

This experiment deals with T1, human FcγRIIIa type V (allotype V158) extracellular domain with C-terminal His tag (human, UniProt P08637 17-208).
T1 construct: also called FcγRIIIaV
T1 sequence (P08637 other isoform, or with tags, fused parts or gaps): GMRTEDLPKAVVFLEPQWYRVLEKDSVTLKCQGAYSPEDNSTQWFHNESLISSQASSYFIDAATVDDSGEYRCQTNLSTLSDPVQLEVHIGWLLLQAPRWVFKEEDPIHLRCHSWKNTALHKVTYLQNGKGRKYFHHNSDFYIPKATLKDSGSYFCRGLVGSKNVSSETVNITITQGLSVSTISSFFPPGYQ
Briefly: SPR (Biacore), antibody captured, FcγR analyte. (In general: SPR reads the build-up and loss of mass on a sensor chip optically.)
For the molecule B1, binding was put at a Kd of 78 µM.

Molecule B2 displayed a Kd of 64 µM.

For the molecule B3, the affinity, expressed as Kd, was 72 µM.

Regarding B4, the Kd came out at 55 µM.

Molecule B5 registered a dissociation constant (Kd) of 63 µM.

With B6, the Kd was 59 µM.

For B7, the affinity, expressed as Kd, was 67 µM.

In the case of B8, the Kd came to 82 µM.

Take B9: the equilibrium dissociation constant (Kd) is 110 µM.
